This note sets out measurements from US20130143299A1.

The assay addresses human Erk2 (extracellular signal-regulated kinase 2), purchased from Sigma (human), P28482. Description: ELISA, purified clone 500 ng/well on immobilised antigen, anti-FLAG-HRP detection. In general terms: ELISA stands for enzyme-linked immunosorbent assay.

Chain of human Erk2 (extracellular signal-regulated kinase 2), purchased from Sigma (human), P28482 (P28482 whole entry): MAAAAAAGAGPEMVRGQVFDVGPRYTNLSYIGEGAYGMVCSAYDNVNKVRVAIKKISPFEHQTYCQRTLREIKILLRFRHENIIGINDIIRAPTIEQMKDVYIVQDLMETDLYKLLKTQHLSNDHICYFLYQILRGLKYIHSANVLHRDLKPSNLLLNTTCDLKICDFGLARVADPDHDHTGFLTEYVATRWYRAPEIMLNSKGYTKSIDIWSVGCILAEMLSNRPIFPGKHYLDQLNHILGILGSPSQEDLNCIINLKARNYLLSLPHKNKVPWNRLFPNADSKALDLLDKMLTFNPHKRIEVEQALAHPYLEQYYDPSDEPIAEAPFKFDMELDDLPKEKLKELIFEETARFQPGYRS

B1: Erk2-binding clone group J (RNF8-FHA domain-modified protein) (designed binder, not shown: large carriers)
chain: GEPGFFVTGDRAGGRSWCLRRVGMSAGWLLLEDGCEVTVGFGTGVTYQLVSKYLPSWFTYNHCVLKQNPEGQWTIMDNKSLTGVWLNRARLEPLRVYSIHQGDYIQLGSLREXSENAEYEYEVTEEDWETIYPCLSPKNDQMIEKN
modifications: not fully specified; X: residue not identified in the source; also: N-terminal MBP-Strep/FLAG fusion partner, sequence not given here
Consider B1, for which the ELISA (S/N) turned out to be 25.6 S/N.
